Among the data in the Immune Epitope Database (IEDB) are IC50 values, retold here.

The IC50 is the concentration that inhibits the measured activity by half.

This assay addresses HLA-A*02:01. The assay can be described thus: IEDB peptide-MHC binding, purified MHC/competitive/radioactivity; ≥ and ≤ were set here for values at or beyond the usual limits of such assays. The settings on record: source organism: Human alphaherpesvirus 1.
As to LLLAGTPAV, the IC50 stood at 17 nM. As for LLLALRHPA, the figure is 600 nM. The same measure for LLLAVAVYA: 93 nM; for LLLHSLTPL: 6.9 nM; for LLLISMYAL: 4.7 nM. For LLLMGCDIV, the IC50 worked out at 94 nM. With LLLNTTLTV, the concentration for half-maximal inhibition (IC50) is 2.9 nM. The same measure for LLLRQWLHV: 207 nM. As for LLLVRAYWL, the figure is 63 nM; as for LLMACAFWC, 974 nM; as for LLMGCDIVL, 2.3 nM. For the sequence LLMNELLRV, the IC50 came out at 8.4 nM.

Take LLMVAVIMAI: the IC50 amounted to 9 nM. As for LLNNYDVLV, the figure is 10 nM.

LLPAVQCAV: the IC50 was 63 nM. As for LLPEIAPNA, the figure is 30 nM. The same measure for LLQRANELV: 635 nM; for LLSALGLSV: 8.9 nM; for LLSGLPTYA: 177 nM. As for LLSNTLAEL, the figure is 5.1 nM; as for LLVEVLREI, 1.6 nM.

As to LLYDLSTTA, the half-inhibitory concentration (IC50) stood at 43 nM.

For LLYLITNYL, the concentration for half-maximal inhibition (IC50) worked out at 11 nM. The same measure for LLYNGAYHL: 7.6 nM. As for LMDGHTGMV, the figure is 184 nM; as for LMFDPRALA, 762 nM. The same measure for LMHATYFLA: 96 nM. Consider LMPSPPMPV, for which the IC50 amounted to 124 nM. The same measure for LVLNMVYSI: 94 nM; for LVVTAIVYV: 187 nM. The same measure for LVWYTVFGA: 346 nM; for MILALTVAI: 45 nM. For the sequence MLCGFSPAL, the IC50 was found to be 8.5 nM.

For the sequence MLDTWNEDL, the IC50 is 102 nM.

Turning to MLIDLGLDL, the IC50 amounted to 14 nM. As for MLIKGVDLV, the figure is 16 nM; as for MLLAFMTLV, 5.7 nM; as for MLLATREYV, 46 nM. Regarding MLRDRWSLV, the IC50 came out at 311 nM. As for MLWTTDKHV, the figure is 1290 nM. As for MLYVIFPGT, the figure is 317 nM; as for MMLRDRWSL, 14 nM. As for MQFVDRFVV, the figure is 209 nM; as for MVIACLLVA, 166 nM; as for NIGAYVVLV, 282 nM. Turning to NTLMFMVYV, the 50% inhibitory concentration (IC50) was found to be 69 nM. The same measure for QLFEAHPNV: 256 nM. As to QLFPGLAAL, the concentration for half-maximal inhibition (IC50) is 16 nM.

For QLLADFPEA, the IC50 came out at 133 nM. As for QLLDPPAAV, the IC50 was found to be 186 nM. As for QLLSAVDYI, the figure is 127 nM; as for QLQAAIFHA, 697 nM; as for RIQQYMFFM, 81 nM.

As to RLAEAVVSA, the IC50 was found to be 75 nM. The same measure for RLARCLTPA: 23 nM; for RLASLLTYA: 7.9 nM; for RLATHLRAV: 159 nM. On to RLCLDVPPV, for which the concentration for half-maximal inhibition (IC50) was determined as 8.5 nM. The same measure for RLDAEYWSV: 44 nM.

RLDALVVAA: the IC50 was found to be 44 nM.

RLDSLDLTL: the concentration for half-maximal inhibition (IC50) stood at 101 nM.

RLFDFFSRV: the IC50 amounted to 0.2 nM. The same measure for RLIDRMLTA: 8.6 nM; for RLLEVMDSL: 144 nM.

Turning to RLLGFADTV, the IC50 was 27 nM. As for RLLQSFLKV, the figure is 82 nM. The same measure for RLMNDWAEV: 24 nM; for RLNNRPIAV: 20 nM; for RLPHICYPV: 17 nM. The same measure for RLPLYEALV: 95 nM; for RLPPHTQPV: 31 nM; for RLPRYLACL: 76 nM. Consider RLQEALAVV, for which the concentration for half-maximal inhibition (IC50) amounted to 6.6 nM.

RLQFGPPPV: the half-maximal inhibitory concentration (IC50) stood at 11 nM.

As for RLQHLVAEI, the IC50 came to 142 nM. The same measure for RLQTYLTDI: 827 nM; for RLSPFPALV: 60 nM. As for RLTEDDFGL, the figure is 77 nM; as for RLTGVTSLV, 13 nM; as for RLTGYPAGI, 1100 nM. The same measure for RLVDGVGGI: 217 nM; for RLVVVGWFL: 865 nM. RLYRWQPDL: the IC50 turned out to be 916 nM. As for RMFGMPTAL, the figure is 5.5 nM; as for RMGELTAEI, 91 nM. The same measure for RMLGDVMAV: 1.7 nM. As for RMWAWIHGL, the figure is 61 nM; as for RTAWWVWCV, 26 nM.

On to RVYNIIQLV, for which the IC50 amounted to 19700 nM.

For the sequence SEEEGNFYV, the IC50 came out at 19200 nM. As for SLDAKQWSV, the figure is 7.5 nM; as for SLFDCIVPV, 0.17 nM; as for SLLALNEAL, 54 nM. The same measure for SLLDSLLVM: 76 nM; for SLLLVVEGV: 8.8 nM. As for SLLSLEHTL, the figure is 55 nM; as for SLLWLGAGV, 54 nM; as for SLMNVDAAV, 9.7 nM. With SLNARGLLV, the IC50 was 145 nM. With SLQQELAHM, the IC50 was 71 nM. The same measure for SLRNVLAAV: 5.4 nM; for SLSTYTVPI: 13 nM.

On to SLYDVEFDA, for which the half-maximal inhibitory concentration (IC50) stood at 9.7 nM.

On to SMDDDTYVA, for which the IC50 came out at 546 nM. The same measure for SMFASCNLL: 29 nM. As for SPGGFVQFV, the figure is 450 nM; as for SQLAHLVYV, 62 nM. As for SQTQPPAPV, the figure is 781 nM. With SVYALGFGV, the 50% inhibitory concentration (IC50) came out at 1300 nM.

Regarding TIHCFFFAV, the IC50 was determined as 108 nM. In the case of TISKPSEAV, the 50% inhibitory concentration (IC50) came out at 4780 nM. As for TLIPRLFAL, the figure is 35 nM; as for TLLDFAHGL, 10 nM; as for TLLDQNNAL, 39 nM. As for TLLELVVSV, the figure is 1.8 nM; as for TLLRLACEV, 65 nM; as for TLRDTIPDC, 1390 nM. The same measure for TLRGLFFSV: 94 nM; for TLSGMGYYL: 148 nM; for TMLEDHEFV: 118 nM. Regarding TMRDDLPLV, the 50% inhibitory concentration (IC50) amounted to 61 nM. The same measure for VIACLLVAV: 205 nM; for VILPACAFV: 6.2 nM; for VLAAGVLVV: 234 nM.

On to VLAAVLLGA, for which the IC50 stood at 52 nM. As for VLADAINGL, the figure is 86 nM; as for VLADDVYPL, 2.4 nM; as for VLANFCSAL, 14 nM. As for VLCGIAWYV, the figure is 7.9 nM; as for VLDCVVTGA, 973 nM.

For VLDEVMSTL, the IC50 turned out to be 45 nM. Consider VLFSGPSPL, for which the 50% inhibitory concentration (IC50) came out at 7.9 nM.

Consider VLGAAIWWV, for which the 50% inhibitory concentration (IC50) stood at 73 nM.

Turning to VLGAAVYAL, the half-maximal inhibitory concentration (IC50) came out at 100 nM.

For VLGCDAALV, the 50% inhibitory concentration (IC50) was found to be 521 nM. As for VLLEKAPPL, the figure is 24 nM. As for VLLGAPVVV, the figure is 14 nM; as for VLMDGHTGM, 136 nM; as for VLNTLMFMV, 14 nM. The same measure for VLPATFAAV: 11 nM. Turning to VLTEPLCQV, the half-inhibitory concentration (IC50) came out at 71 nM.

On to VLVVQPAPV, for which the IC50 was determined as 112 nM. The same measure for VLWSLLWLG: 1.4 nM.

With VMAARPMVV, the IC50 amounted to 266 nM. VMAAVCLQI: the IC50 amounted to 15 nM.

VTFDTLFMV: the concentration for half-maximal inhibition (IC50) is 8.7 nM. As for VTTDSVRAL, the figure is 5350 nM. As for VVTAIVYVV, the 50% inhibitory concentration (IC50) came out at 265 nM. As for WLETELVFV, the figure is 85 nM. The same measure for WLLQITVLL: 130 nM; for YFHALVYFV: 133 nM.

On to YIFSYDAYT, for which the IC50 was determined as 310 nM.

Take YILNKPVFI: the IC50 worked out at 52 nM. As for YLACELLPA, the figure is 4.7 nM. For YLACLAAVI, the IC50 was determined as 61 nM. As to YLALLEACL, the IC50 came out at 7.5 nM. With YLANGGFLI, the IC50 came out at 0.56 nM.

Regarding YLARAAGLV, the IC50 stood at 210 nM.

Turning to YLATGALLA, the IC50 was 55 nM. As for YLCDNFCPA, the figure is 27 nM; as for YLCPVLVFV, 9.5 nM. As to YLCSLAVVL, the IC50 stood at 17 nM.

For YLDEAGGHL, the 50% inhibitory concentration (IC50) turned out to be 23 nM.

Turning to YLGAFLSVL, the half-inhibitory concentration (IC50) was 16 nM.

For YLLEQLNNL, the IC50 is 5.7 nM. The same measure for YLLGRPPNA: 12 nM. The same measure for YLLNYAGRI: 194 nM; for YLREYVTRL: 115 nM.

As to YLSEEMMEL, the IC50 stood at 6.3 nM.

For the sequence YLSRTQRLA, the half-inhibitory concentration (IC50) stood at 110 nM. As for YMAKLHAYL, the figure is 11 nM; as for YTFWRLDLV, 30 nM; as for YVLHFACLV, 7.6 nM. As for YVLNSQIAV, the figure is 121 nM. As for YVPPDMRGV, the figure is 511 nM.
